Test results published in FireProtDB (doi:10.1021/bi002752b).
Values joined by “and” are separate entries in the source; they are usually repeats but may differ in a detail not shown here. Equal entries are not always repeated.

Conditions: Pseudomonas putida, 25 °C, GdnHCl, phosphate 50 mM, reversible: yes, whole UniProt chain shown

B1: 2-hydroxymuconate tautomerase wild type, Q01468 (protein)
chain: MPIAQIHILEGRSDEQKETLIREVSEAISRSLDAPLTSVRVIITEMAKGHFGIGGELASKVRR
For B1, the “denaturant midpoint (higher = more stable)” value (“denaturant midpoint” below) (pH 6, CD) was 1.9 M and 2.1 M and 2.3 M, the “denaturant midpoint” value (pH 6, activity) was 1.4 M and 1.7 M and the “denaturant midpoint” value (pH 7.4, CD) was 2.4 M and 2.7 M and 2.9 M. For the same protein, the “denaturant midpoint” value (pH 7.4, activity) was 2.2 M and 2.5 M and 2.9 M, the “denaturant midpoint” value (pH 8.5, CD) was 2.5 M and 2.8 M and 3 M and the “denaturant midpoint” value (pH 8.5, activity) was 2.5 M and 2.7 M and 2.9 M.
